According to patent publication US20180355064A1 (GLENMARK PHARMACEUTICALS S A, published 2018):

Target: T1, human CD3 epsilon on HPB-ALL cells (human, UniProt P07766 23-207)
T1 construct: whole, on cells; also called human CD3 epsilon positive T cell tumour line
Experiment: FACS, median fluorescence intensity on HPB-ALL cells
Experimental: HPB-ALL cells (DSMZ, Braunschweig, Germany, Cat. No: ACC483) were used as CD3 positive cell line for FACS staining. […] After washing, cells were incubated with a 1/200 dilution of anti-Human Fc-PE (EBioscience, Vienna, Austria) for 45 min on ice. Cells were then washed again and resuspended in 200 ul FACS buffer.

B1: humanized OKT3 prototype antibody VH/VL (antibody, human IgG1, kappa, V domains shown)
VH: EVQLVESGGGLVQPGGSLRLSCAASGYTFTRYTIHWVRQAPGKGLEWVAYINPSRGYTRYADSVKGRFTISADTSKNTAYLQMNSLRAEDTAVYYCARYYDDHYCLDYWGQGTLVTVSS
VL: DIQMTQSPSSLSASVGDRVTITCRASSSVSYVAWYQQKPGKAPKLLIYDTSKLYSGVPSRFSGSRSGTDFTLTISSLQPEDFATYYCQQWSSNPPTFGQGTKVEIKR
- binding result: no binding
